The text below walks through data of patent US20240124575A1 (SIMCERE ZAIMING PHARMACEUTICAL, published 2024).

Read-outs that look alike come from different tables or passages of the source.

The target of assay [1] is T1, human CD33-C2-his (human, UniProt P20138 136-260).
T1 construct: expressed in HEK293E; also called hCD33-C2-his; human CD33 protein C2-domain; not shown: His tag
The assay is described as follows: ELISA on coated human CD33-C2-his.

Assay [2] has as its target T2, human CD33-His (extracellular domain Asp 18-His 259) (human, UniProt P20138 18-259).
T2 construct: range 18-259; bought protein; also called hCD33-his; human CD33 protein; not shown: His tag
The experiment in a line: competitive ELISA vs coated SGN-33 2ug/mL; soluble 25ug/ml. The method, then:
(§1) VHH antibodies and control antibodies with known epitopes were subjected to epitope classification with competitive ELISA. ELISA plates were coated with 2 μg/mL antibodies according to the method in Example 5.1; the human CD33-his protein was subjected to a gradient dilution from 30 μg/mL, and EC80 values (Tables 26-27) were calculated. ELISA plates were coated with 2 μg/mL antibodies; after 25 µg/mL of antibodies to be tested were added, a human CD33-his protein having an EC80 concentration corresponding to each of the antibodies to be tested was then added for incubation for 2 h. The plates were washed 5 times with PBS, then HRP-labeled anti-His antibodies (purchased from GenScript, Cat. No. A00612) were added for incubation for 1 h, and the plates were washed 5 times. A TMB substrate was added at 50 μL/well and incubated at room temperature for 10 min, then a stop solution (1.0 M HCl) was added at 50 μL/well. OD_{450 nm} values were read using an ELISA plate reader (Insight, purchased from PerkinElmer), and the competition rate between the antibodies was calculated according to the OD_{450 nm} values using a formula. The results are shown in FIGS. 12A-12B, the higher the value of the competition rate, the closer the epitopes to which two antibodies bind.

Assay [3] has as its target T2, human CD33-His (extracellular domain …). The assay is described as follows: competitive ELISA vs coated S006-NB146-173 3ug/mL; soluble 25ug/ml.
For assay [4], the target named is T1, human CD33-C2-his. The assay is described as follows: ELISA on coated human CD33-C2-his. From the text: (§2) Plates were coated with human CD33-V-his (membrane distal end) and human CD33-C2-his (membrane proximal end), respectively, according to the ELISA method in Example 8. The VHH humanized antibodies were classified based on the membrane distal end and the membrane proximal end, as shown in FIGS. 20A-20J and Table 44, which allowed the classification of the VHH humanized antibodies into the following classes: […]
This is another data set of the same source.

In assay [5] the target is T1, human CD33-C2-his. The experiment in a line: ELISA on coated human CD33-C2-his.
Source text: as §2
The source holds these as a separate data set.

Assay [6] deals with T2, human CD33-His (extracellular domain …). The experiment in a line: competitive ELISA vs coated S006-NB146-3 2ug/mL; soluble 25ug/ml. As for the experimental part: as §1
Assay [7] has the same target. The experiment in a line: competitive ELISA vs coated S006-NB146-181 3ug/mL; soluble 25ug/ml.
The target in assay [8] is T3, human CD33-his protein (human, UniProt P20138 18-259).
T3 construct: range 18-259; bought protein; also called hCD33-his; recombinant human CD33-his; not shown: His tag
The experiment in a line: competition ELISA, coated human CD33-his, vs Biotin-C33B904 at EC80; antibody 250.00 nM. As for the experimental part: The plate was sealed with a plastic film and incubated at 4° C. overnight, washed twice with PBS the next day, and a blocking solution [PBS+2% (w/w) BSA] was added for blocking at room temperature for 2 h. The blocking solution was discarded, and VHH-Fc antibody or negative control antibody serially diluted from 100 nM was added at 50 μL/well. After incubation at 37° C. for 2 h, the plate was washed 3 times with PBS. A secondary antibody labeled with HRP (horseradish peroxidase) (purchased from Sigma, Cat. No. A0170) was added. After incubation for 1 h at 37° C., the plate was washed 5 times with PBS. A TMB substrate was added at 50 μL/well. After incubation at room temperature for 10 min, a stop solution (1.0 N HCl) was added at 50 μL/well. The OD450 nm values were read on an ELISA plate reader (Multimode Plate Reader, EnSight, purchased from Perkin Elmer). The assay results for the binding of the VHH-Fc to hCD33-his by ELISA are shown in FIGS. 7A and 7B and Tables 11 and 12. […] The IgG control was hIgG1, and the data in the table are OD450 nm values.
ELISA plates were coated with 2 μg/mL human CD33-his protein according to the method in Example 5.1; the Biotin-C331B904 antibody was subjected to a gradient dilution from 15 μg/mL, and EC80 values (0.18 μg/mL) were calculated. […] OD_{450 nm} values were read using an ELISA plate reader (Insight, purchased from PerkinElmer). […]

Assay [9] has as its target T3, human CD33-his protein. The experiment in a line: competition ELISA, coated human CD33-his, vs Biotin-C33B904 at EC80; antibody 7.81 nM. The method, then: (§3) ELISA plates were coated with 2 μg/mL human CD33-his protein according to the method in Example 5.1; the Biotin-C331B904 antibody was subjected to a gradient dilution from 15 μg/mL, and EC80 values (0.18 μg/mL) were calculated. ELISA plates were coated with 2 μg/mL human CD33-his protein; starting from 40 μg/mL, the VHH antibodies to be tested were diluted in a 1:2 dilution ratio to obtain seven concentrations and added to the ELISA plates, and then Biotin-C331904 antibodies with the EC80 concentrations were added for incubation for 2 h. The plates were washed 5 times with PBS and then […] (purchased from Sigma, Cat. No. S2438) were added for incubation for 1 h, and the plates were washed 5 times. A TMB substrate was added at 50 μL/well and incubated at room temperature for 10 min, then a stop solution (1.0 M HCl) was added at 50 μL/well. OD_{450 nm} values were read using an ELISA plate reader (Insight, purchased from PerkinElmer). Then, analysis was performed by software (GraphPad Prism8), and data were fitted for curve plotting. The results are shown in FIGS. 13A-13B and Tables 28 and 29.

In assay [10] the target is T3, human CD33-his protein. The experiment in a line: competition ELISA, coated human CD33-his, vs Biotin-C33B904 at EC80; antibody 500 nM. As for the experimental part: as §3
The target of assay [11] is T4, monkey CD33-his protein (monkey).
T4 construct: bought protein; also called monkey CD33 protein (Sino Biological, Cat. No. 50712-M08H)
The experiment in a line: SPR (Biacore), antibody captured on Protein A chip, monkey CD33 analyte.

T3 sequence (P20138 18-259 limits assumed): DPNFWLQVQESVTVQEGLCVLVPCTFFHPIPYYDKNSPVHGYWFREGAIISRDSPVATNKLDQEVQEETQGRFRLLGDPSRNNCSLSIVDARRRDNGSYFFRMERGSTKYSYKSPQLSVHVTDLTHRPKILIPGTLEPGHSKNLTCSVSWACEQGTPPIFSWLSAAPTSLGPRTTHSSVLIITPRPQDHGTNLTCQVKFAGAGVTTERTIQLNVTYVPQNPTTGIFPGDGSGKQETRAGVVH
T2 sequence (P20138 18-259 limits assumed): as above
T1 sequence (P20138 other isoform, or with tags, fused parts or gaps limits assumed): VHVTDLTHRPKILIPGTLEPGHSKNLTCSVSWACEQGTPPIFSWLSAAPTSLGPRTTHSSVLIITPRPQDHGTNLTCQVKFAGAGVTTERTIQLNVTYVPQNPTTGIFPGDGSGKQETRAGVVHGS

B1: C33B904 hIgG1 (antibody, V domains shown)
VH: EVQLVESGGGLVQPGRSLRLSCAASGFTFDDYAMHWVRQAPGKGLEWVSGIGWSGGSIVYADSVKGRFTISRDNAKNSLYLQMNSLRAEDTALYYCAKDSPYGDFFDYWGQGTLVTVSS
VL: DIVMTQSPDSLAVSLGERATINCKSSQTVFYSSNNKNYLAWYQQKPGQPPKLLISWASTRKSGVPDRFSGSGSGTDFTLTVSSLQAEDVAVYYCQHYYSTPYTFGQGTKLEIKR
notes: intact human IgG1; variable regions from US20190382481A1; also called C33B3904; C331B904
On to B1, for which the figures for the “EC50 (read off the curve)” value in [1], in assay [4] and in [5] were approximately 0.4 nM, approximately 0.1 nM and approximately 0.05 nM, respectively. The inhibition rate was 17% in assay [2], 100% in assay [3], -9% in assay [6] and 100% in [7].

B2: C33B904 (antibody, human IgG1, kappa, V domains shown)
VH: EVQLVESGGGLVQPGRSLRLSCAASGFTFDDYAMHWVRQAPGKGLEWVSGIGWSGGSIVYADSVKGRFTISRDNAKNSLYLQMNSLRAEDTALYYCAKDSPYGDFFDYWGQGTLVTVSS
VL: DIVMTQSPDSLAVSLGERATINCKSSQTVFYSSNNKNYLAWYQQKPGQPPKLLISWASTRKSGVPDRFSGSGSGTDFTLTVSSLQAEDVAVYYCQHYYSTPYTFGQGTKLEIKR
notes: control antibody, intact human IgG1 form; variable regions from US20190382481A1; also called C33B904 hIgG1; C331B904
For B2, the “OD450 (Biotin-C33B904 signal)” value in [8] was 0.1; in assay [9], 1.11; in assay [10] it was 0.08. Also, in assay [11], binding was characterised by a dissociation constant (Kd) of 0.565 nM. The molecule further registered a koff in [11] of 0.000626 s⁻¹. Also, in assay [11], the kon was determined as 1.11e+06 M⁻¹ s⁻¹.
